According to the DeepSol protein solubility set:

Assay: soluble on expression in E. coli; label from the status in PepcDB or PDB records

| Sequence | soluble on expression in E. coli |
| --- | --- |
| MGSDKIHHHHHHATASESSKYIGLQLYSLRDLVKEEGIQKVLETAAKMGYKNLETASYDNGKIYGLAPAEFKKMVNDLGMKCTSAHLGQAFTKEKEAEVMSWWDQAIDAHNELGVKYMVQPWMPVNDKTTLDDLKMYCDYFNTVGYKTAAASIAFGYHNHDFEFRKIDDQLIYDFLLDNVSPNHVFFEMDVYWVMMGGGDPVAYLKNRPSQFKAIHIKDEKEIGASGKMNFKPIFDQMYANNVKDWYVEVEQYTNNDPVASVQQSYDFLNKADYVK | not soluble |
| DADPTFDFIGYLETLPQTSGMYMGNASIIPRNYRKYLYHAYLAYMEANGYRNVLSLKMFGLGLPVMLKEYGLNYEKRHTKQGIQTNLTLKEESYGDWLPK | soluble |
| MSLTITRIETIPMVAPLAREFRGSHYHMTHRATIVTRVHTDAGIIGEAYTGDEHETMFDIDRIIHEELAPTLIGQDAMAIERLWDSGYKVTFDILRDRRLGLVALAAVNTAIWDAVGKALKMPLWKLWGGYRNELPMIAIGGYYGEPLGSIADEMHNYQELGLAGVKFKVGGLSAAEDAARITAAREAAGDDFIICIDANQGYKPAVAVDLSRRIADLNIRWFEEPVEWHNDKRSMRDVRYQGSVPVCAGQTEFSASGCRDLMETGAIDVCNFDSSWSGGPTAWLRTAAIATSYDVQMGHHEEPQVSTHLLASQPHGTIAECFHPDRDPFWWNMITNRPKLNNGTLTLSDRPGLGWDLNWDYIDQYRVSKDEGHHHHHH | soluble |
| MITLFTFGPSFGLPDASPFVMKAELLLKMAGLPYQTARGNLRRAPKGKLPYLDDMGRIVADSTLIRWHIEKTYHVDFDEGLSPAERGTAWAVEKLMEDNLYWAVARVRWLERDNFERGPAQFFNVVPGPLRGLVKVLVRRKVRQMLWAQGLGRHSEQDMTAMAVQGIKAITDILGDKPYLMGNNPCGADATLFAFAASLLSPVFETPIRAAAESHPNLIAYMARMRTRYYPDFQGSGVFAPASAATAGRPEAAFGQQLEHHHHHH | soluble |
| AIWRSRSFDEAIEMFRESLYSAKNEVIVVTPSEFFETIREDLIKTLERGVTVSLYIDKIPDLSEFKGKGNFFVRQFYKLNHLIGMTDGKEVVTIQNATFDSIGPPSFKSTYPEIIFSQYSLIIEIFKESTLEKEIIGNPKDIRFFAMFHAVDFVKNHLKNRNIYAEITGKNLESGRLETLTGRVVGYTLSLREAVNNIHLETENGVVKVGGMFAVIEDYESTEIKFIMGGSRS | soluble |
| MVYSVPMMCAQDLRRSAMLDVVVAGGGYVGLSAAVAIKQAAPHLNVQVIEAAPDDVWKKDVRASAVIAAATRMLDVFGIWNEIEPEAQPIHKMVVTDSKTADPVRPVFLTFDGAVEEGRPFAHMVPNVAMVSALRGLCERIGIKIRHGISVSGFTAGPQSTAITLSDGTSLEARLLIACDGVRSALRDMAGIKTVHWAYDQSGIVTTVEHERPHEGCAEEHFLPSGPFAVLPLKGNRSSLVWTERTADAVRLVASDDLVFEEELERRFGHKLGPVRPVGPRRAFPLGLTLARSFVAPRFALAGDAAHGIHPISGQGLNLGFKDVAALAETVVEADRLGLDIGSLNVLERYQSWRRFDTLRMGVTTDVLNRLFSNDVGPIRVMRDFGLGVVDRLPGLKSYFIGQAAGTTDANAPRLLAGEALLEHHHHHH | not soluble |
| MAHHHHHHMETVDALDYSELVALNQEEALRRVLASYPRIGLQATELGRARRIVQRALYHKRAGDAVFLAYTSNLISSGLRDTFACLARDRLIDGFISTAGGIEEDAIKCLGKTLVGQFSLDGRELRRCGVNRTGNLLVPNDNYCHFENFFMPVLKHLHELQRESRWETMTAPSEMIAAIGAALGCKHPETCSDSLLYWCYRNNIPVFSPALTDGSIGDMIYFYNYSKKGLVLDPIVDVVRLRELGCRNRRCDDSQGGNRSQNNNGRTTCIVLGGGLPKHHLLQNVRADTVVYVSTGLEVDASPSSCNVAEDRANGVLLDNCEVVRVHGDASFVFPLLLCKAETSADTHKDVAA | soluble |
| MGSDKIHHHHHHMLRGKDATLAAIINIILDEEPETQDDIADRLGVSRRYVAKLLKPLVDGGAIMHPYVVNLEKLKEFEEYIETDRYFKEIYETFDRMGTNVIQNIDKVFDSLKTHDLDIAKSIILEDYALNRMEDEVNLVIKMKASKYMDMNSLMQVSNIAANIERCGDYLSNIAEEVVNGLLVDPAIKKEVFEIKEIISKMFAHAMNMVKSKTIETEIYELEGNLHKKLDTMMEKIAEHPDENLKDINQFIQFGMFLKDVERFGDRCLKIFELGREFHHNIPKNVTTPEYVRNLK | not soluble |
| MNEKQADTLLNVPEIVKRAKIALNLKRDSELASYLGVARATLSNWCARNSIDFPLLLNKLRHVDYNWLLTGKGSPLHDPKSFDNGKIRGEVETIHNSKTTEAIDDRSVTLYDITAAANLRTLLSDKRQYALGKILIPSIPACDGAIFVNGDSMYPILKSGDIVGFKGINNFSNVIYGEMYIVAFHLDGDQYLTVKYVNRSEKEGYVKLVSYNPHHEPMDLPVDTIQDMAIVKFSIRKNMMM | not soluble |
| MSASFSAPRLRPRQLSAGDLVEESLLDPANDYLRIVRARQPGMDLRQWIAAAGAGLRDSLLRHGGILFRGFAVDGAEGFSQAVQSFSPNMLDYLERAAARQEVAHRVFTSTEFSPDGWIPPHHEMSYSHNWPSYIHFYCQTPPATQGRTPLADERRVSARIPEAIRQRFLRHGVCYVRNYGPEIDLTWQEGFQTDSRAEVEAYCRQTGTQWTWLDDQRLNTRQVRQAMVRHPLSGETLWFNHAHMFHVSNMPPALARALLDEVGEQGLPRNAYYGDGSPIEAEVLDTIRAAYREETRAFAWERGDVLMLDNFISVHGREPYTGERKVLVAMTDLHVHQP | not soluble |
| MPEFTNNPVAECDTVFSEKDGKKIVDFIIYPAKNGDQWVGTAVEAKSMGFGGELKVLVGFDAEGKIYNYSLLSHAETPGLGSKAADWFKEGNKGSIKGMNPGEQPLTVSKDGGQVDAITASTITSRAFLNAVNAAYGAYKGDGGANGTTGASQKAVQKSETAIVDSVVIKLEHHHHHH | soluble |
| MSLENRGILFDKDGTCIRFDTLWQAGLQACFETLSMLAPHHSAEIKKILAIQEQRFLQKHLLDEVLYQELYQELAQFEELVEQGISSRWLEQFFYDYLRKNLKKIEPIGDLKQLFLELKRKNYKIGLATSDTLPATMLIMEYLGLTEMFDFIATGDRYLPKPDADMLQAFCQSCQLKATEVIMVGDSLVDVFMGTCHGKAGIGVLTGNCQSTDFEKFEVAYFRDIHEIPYQELWGNTKKKKIYYVEGHHHHHH | soluble |
| AHHHHHHGSLEVQGISKKWKDFHLKDISFSVMDGEYFIVLGPSGAGKTVLLEIIAGIIPPDGGKVLLDGKDITLLPPEKRGIAYVPQNYALFPNMSVFDNIAFGLKVRRVPRSEIEKRVLEISEVLGIRHLLHRKPRTLSGGEQQRVAVARALVIEPEIILLDEPFANLDVQIRSRLINEMKRWRRELGFTAIHVTHSFEEALALGDRVGIMLNGKLVQVGEIREVFSRPNSEEVAKFLGFENIIEGIADGRVLHVGKLRIELPLEAKGRVRIGIRPEDILISTERIKTSARNVFKAKVEAIEDVGPLVKLTLNVCDITLRAFITRSSLVELGIEEGKEVYASFKASAIHVF | soluble |
| MGSDKIHHHHHHMENRIVKFKSKESAGLNLHAIPGHFATSHSHINYYVDVTSIKTRVSEAKEAAKALYTKVPHHSYIDTIVCMDGTEMIGAFLSQEIERNGLMSVNKHETIYVVSPEINNGQMLFRDNNKGAIDGKHVVLLLATTTTGETIRRAMECINYYGGMVTCIASIFSTIDEVNGVKIDKLFDDDDVVNYQTYPVTECPFCKKGLPIEAMVNGFGYSKL | not soluble |
| MGEPFGGPLMGRLVSLLPSATDLIFELGLGEQLLGVSHCCDHPGAASLPVLTRSIIGSDLPQAEIDRAVSEAVRAGRALYTVDGPLLDRLRPDLVVTQGVCEVCAVTPGTVAEAVRFLPGCLPAEQVLSLEGKTFAGILADLRALARAAGVRERGEALAAESERRWNAIRPVGVQVPEPPRVLTLEWVDPPFYGGHWVPEQVAQAGGKDVLGHAGRDSGRTSWEDVVQLDPDVIVVMCCGYGLSDNAEFARQVLSHPELRAVRAGQVWGVDANAHFSRPSLGVVRGAEVLAALLRGEESAGESVRVRAELEHHHHHH | not soluble |
| MVFYGQPVTDDSTIRLSGQGVNTAFSVNLQAINHDVQKIAFTATCDGNQTLSQLGNLSIQVELNGSVLMKGDVETQGRQEAALILGELYRRNTEWKFRFVAQGFNGGLKPLAEHFGVVVEDEPAAPTPVPTPVSTPAPTAPPVAKPINLSKVSLTKEKPVISLTKRDDFGEIRVNLNWHRGGGAPAKGFLQGIFNSNKGIDLDLGAFVALNDGSRGVIQALGNNFGSYHSEPYVQLQGDDRTGDVSDGEWMHINGREWKHVKEVLIFAFIYEGVPSWGSTDGIVTINVPGQAPIETQMNEGNDRKNMCAVARLVNESGNIKVERINRYFSGHKEMDEAFGWGFRWKAGSK | not soluble |
| MGSDKIHHHHHHMPRPRRTQISLEDTPYYHCCSRVVRRAFLCGDDTYSGKNYDHRRTWVESLLFELEAIFAIDVAAFAVMSNHLHLVLRVDIDSANGWTDREVLEQWHKLFKGDELTQKFAKGELVEAYEVSRLKHSIAIYRSRLCDISWFMRCLNEPIARQANQEDNCTGRFWEGRFKSQALLDEAAVLACMTYVDLNPIRAQLADTPEQSDHTSIQLRIRAALKGEQPSNLLPFIANECDNQPNGIAFSLMDYLQLVDDTGRIIRNDKRGYISESSAKILTRLNIPHDNWLKLTTDFGKLFHGPVGTLQELTDYCEHLEKRRRHFAASCQHFKSN | not soluble |
| MEEEGSPDIIIVGAGISGLSTAVGLHRLGIRSMVLESSETLRATGFAFTTWFNAWKAMEALGVSQHIRSLHDRLEGWVVGTISAGTPPTEMLFPESEEYESRCVQRKLLLEALAGELPEETIRFSSKVVHIELSGCYKKVHLSDGTILKTKVLVGCDGVYSVVGKWLGFKNPATTARLAIRGLTHFPEGHGFGKRFFQFYGDGVRSGFIPCDHNTVYWFLTHTSTDIDEETNSEILKEFVLNKIKDLPENIKNVVETTDLDSMVMSQLKYRPPWELLWSNITKDNVCVAGDALHPMTPDIGQGGCSAMEDGVILARCLGEAIKAKSLKGETEENEEEGYKRIEEGLKKYAGERKWRSIDLITTAYTVGFIQQSRGKWMNMFRDRFLSSYLSRMLLKKSHFDCGSLVP | soluble |
| MADLSFIEDTVAFPEKEEDEEEEEEGVEWGYEEGVEWGLVFPDANGEYQSPINLNSREARYDPSLLDVRLSPNYVVCRDCEVTNDGHTIQVILKSKSVLSGGPLPQGHEFELYEVRFHWGRENQRGSEHTVNFKAFPMELHLIHWNSTLFGSIDEAVGKPHGIAIIALFVQIGKEHVGLKAVTEILQDIQYKGKSKTIPCFNPNTLLPDPLLRDYWVYEGSLTIPPCSEGVTWILFRYPLTISQLQIEEFRRLRTHVKGAELVEGCDGILGDNFRPTQPLSDRVIRAAFQLEHHHHHH | soluble |
| MFIGGAIISFLFLFGYMWKEAHSNRIRHVTLSFPHFPDNGPPLTIFFISDIHRRSVSCRMLETVKGKADLVVIGGDLAEKGVPAARVRENVRRLQTVAPVYFVWGNNDDEVDYDLQSLLEEERVYVLKNKAEVWEHGGVPIALIGVGDVSRKEADIARALEHVPPESFRILACHNPAIIARLEDEQHISLVLSGHTHGGQIRLFSFGLYEKGGLKWHGNTALFTSNGYGTTGVPLRLGAPAETHLIKIVPGKLATEKLEHHHHHH | soluble |
| MECYVFTPKGRIIKLPRGATIVDFAYAVHTDIGNSCVSARVNRILAPLHSVLENGQTIEIITAPWARPNPLEHHHHHH | not soluble |
